T1: human BCMA (antigen) (human, UniProt Q02223 1-54, limits assumed)
T1 construct: Antigen coupled to the CM5 chip in SPR; also called B-cell maturation antigen; TNFRF17
T1 sequence (looked up): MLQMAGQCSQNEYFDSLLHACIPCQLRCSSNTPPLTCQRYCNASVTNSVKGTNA

T2: human CD19 (antigen) (human, UniProt P15391 20-291, limits assumed)
T2 sequence (looked up): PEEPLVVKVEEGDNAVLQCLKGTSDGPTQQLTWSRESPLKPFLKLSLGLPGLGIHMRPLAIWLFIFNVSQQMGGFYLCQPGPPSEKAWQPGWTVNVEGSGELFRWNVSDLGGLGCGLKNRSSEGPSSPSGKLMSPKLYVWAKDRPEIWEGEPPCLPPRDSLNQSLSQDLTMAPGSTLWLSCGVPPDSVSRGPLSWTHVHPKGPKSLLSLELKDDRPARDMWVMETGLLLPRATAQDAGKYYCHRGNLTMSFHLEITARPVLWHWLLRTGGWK

T3: BCMA expressed on target cells (CHO-K1-BCMA recombinant cell line; MM.1S; RPMI8226) (human, UniProt Q02223 1-184)
T3 sequence (looked up): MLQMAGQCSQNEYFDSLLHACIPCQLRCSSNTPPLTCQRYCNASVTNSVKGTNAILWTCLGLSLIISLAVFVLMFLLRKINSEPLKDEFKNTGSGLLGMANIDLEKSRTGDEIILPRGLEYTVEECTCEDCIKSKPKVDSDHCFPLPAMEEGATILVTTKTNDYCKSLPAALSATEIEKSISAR

T4: CD19 expressed on Nalm6 cells (UniProt P15391 20-556, limits assumed)
T4 sequence (looked up): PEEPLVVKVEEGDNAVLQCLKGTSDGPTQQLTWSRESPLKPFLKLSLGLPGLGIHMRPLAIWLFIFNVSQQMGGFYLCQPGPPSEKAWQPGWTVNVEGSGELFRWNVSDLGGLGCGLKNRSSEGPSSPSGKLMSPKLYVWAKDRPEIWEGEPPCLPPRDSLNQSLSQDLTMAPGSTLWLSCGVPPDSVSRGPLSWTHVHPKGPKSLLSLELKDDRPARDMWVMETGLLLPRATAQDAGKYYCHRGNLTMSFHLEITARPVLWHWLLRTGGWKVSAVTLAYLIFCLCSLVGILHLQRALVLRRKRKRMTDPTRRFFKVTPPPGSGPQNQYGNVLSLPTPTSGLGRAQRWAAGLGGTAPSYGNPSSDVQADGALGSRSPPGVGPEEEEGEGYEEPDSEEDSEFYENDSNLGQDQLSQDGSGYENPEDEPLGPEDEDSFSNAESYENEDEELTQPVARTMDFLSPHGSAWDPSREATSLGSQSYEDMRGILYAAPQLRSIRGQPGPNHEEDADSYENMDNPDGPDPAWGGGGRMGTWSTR

B1: TanCAR 02 (other)
chain: DIVMTQSPLSLPVTPGEPASISCRSSQSLVHSNGNTFLHWYLQKPGQSPQLLIYKVSNRFSGVPDRFSGSGSGTDFTLKISRVEAEDVGVYYCMQSTHVLTFGGGTKLEIKRAGGGGSGGGGSGGGGSQVQLVQSGAEVKKPGASVKVSCKASGYTFTDYLMHWVRQAPGQGLEWMGWINTETGEPTYADDFKGRVTMTRDTSTSTVYMELSSLRSEDTAVYYCAPSLYYGYSWFTYWGQGTLVTVSEAAAKEAAAKEAAAKQVTLRESGPALVKPTQTLTLTCTFSGVSLPDYGVSWIRQPPGKALEWLAVIWGSETTYYNSALKSRLTISKDTSKNQVVLTMTNMDPVDTATYYCAKHYYYGGSYAMDYWGQGTTVTVSSGGGGSGGGGSGGGGSEIVLTQSPATLSLSPGERATLSCRASQDISKYLNWYQQKPGQAPRLLIYHTSRLHSGIPDRFSGSGSGTDFTLTISRLEPEDIAVYYCQQGNTLPYTFGQGTKLEITTTPAPRPPTPAPTIASQPLSLRPEACRPAAGGAVHTRGLDFACDIYIWAPLAGTCGVLLLSLVITLYCKRGRKKLLYIFKQPFMRPVQTTQEEDGCSCRFPEEEEGGCELRVKFSRSADAPAYKQGQNQLYNELNLGRREEYDVLDKRRGRDPEMGGKPRRKNPQEGLYNELQKDKMAEAYSEIGMKGERRRGKGHDGLYQGLSTATKDTYDALHMQALPPR
notes: Tandem bispecific chimeric antigen receptor on human T cells; built here from its parts without the signal peptide; also called TanCAR 02 CAR-T
B2: TanCAR 06 (other)
chain: QVTLRESGPALVKPTQTLTLTCTFSGVSLPDYGVSWIRQPPGKALEWLAVIWGSETTYYNSALKSRLTISKDTSKNQVVLTMTNMDPVDTATYYCAKHYYYGGSYAMDYWGQGTTVTVSSGGGGSDIVMTQSPLSLPVTPGEPASISCRSSQSLVHSNGNTFLHWYLQKPGQSPQLLIYKVSNRFSGVPDRFSGSGSGTDFTLKISRVEAEDVGVYYCMQSTHVLTFGGGTKLEIKRAGGGGSGGGGSGGGGSGGGGSQVQLVQSGAEVKKPGASVKVSCKASGYTFTDYLMHWVRQAPGQGLEWMGWINTETGEPTYADDFKGRVTMTRDTSTSTVYMELSSLRSEDTAVYYCAPSLYYGYSWFTYWGQGTLVTVSGGGGSEIVLTQSPATLSLSPGERATLSCRASQDISKYLNWYQQKPGQAPRLLIYHTSRLHSGIPDRFSGSGSGTDFTLTISRLEPEDIAVYYCQQGNTLPYTFGQGTKLEITTTPAPRPPTPAPTIASQPLSLRPEACRPAAGGAVHTRGLDFACDIYIWAPLAGTCGVLLLSLVITLYCKRGRKKLLYIFKQPFMRPVQTTQEEDGCSCRFPEEEEGGCELRVKFSRSADAPAYKQGQNQLYNELNLGRREEYDVLDKRRGRDPEMGGKPRRKNPQEGLYNELQKDKMAEAYSEIGMKGERRRGKGHDGLYQGLSTATKDTYDALHMQALPPR
notes: Tandem (looped) bispecific chimeric antigen receptor on human T cells; built here from its parts without the signal peptide; also called TanCAR 06 CAR-T
B3: TanCAR 05 (other)
chain: DIVMTQSPLSLPVTPGEPASISCRSSQSLVHSNGNTFLHWYLQKPGQSPQLLIYKVSNRFSGVPDRFSGSGSGTDFTLKISRVEAEDVGVYYCMQSTHVLTFGGGTKLEIKRAGGGGSQVQLVQSGAEVKKPGASVKVSCKASGYTFTDYLMHWVRQAPGQGLEWMGWINTETGEPTYADDFKGRVTMTRDTSTSTVYMELSSLRSEDTAVYYCAPSLYYGYSWFTYWGQGTLVTVSGGGGSGGGGSGGGGSGGGGSQVTLRESGPALVKPTQTLTLTCTFSGVSLPDYGVSWIRQPPGKALEWLAVIWGSETTYYNSALKSRLTISKDTSKNQVVLTMTNMDPVDTATYYCAKHYYYGGSYAMDYWGQGTTVTVSSGGGGSEIVLTQSPATLSLSPGERATLSCRASQDISKYLNWYQQKPGQAPRLLIYHTSRLHSGIPDRFSGSGSGTDFTLTISRLEPEDIAVYYCQQGNTLPYTFGQGTKLEITTTPAPRPPTPAPTIASQPLSLRPEACRPAAGGAVHTRGLDFACDIYIWAPLAGTCGVLLLSLVITLYCKRGRKKLLYIFKQPFMRPVQTTQEEDGCSCRFPEEEEGGCELRVKFSRSADAPAYKQGQNQLYNELNLGRREEYDVLDKRRGRDPEMGGKPRRKNPQEGLYNELQKDKMAEAYSEIGMKGERRRGKGHDGLYQGLSTATKDTYDALHMQALPPR
notes: Tandem bispecific chimeric antigen receptor on human T cells; built here from its parts without the signal peptide; also called TanCAR 05 CAR-T
B4: TanCAR 10 (other)
chain: DIVMTQSPLSLPVTPGEPASISCRSSQSLVHSNGNTFLHWYLQKPGQSPQLLIYKVSNRFSGVPDRFSGSGSGTDFTLKISRVEAEDVGVYYCMQSTHVLTFGGGTKLEIKRAGGGGSGGGGSGGGGSQVQLVQSGAEVKKPGASVKVSCKASGYTFTDYLMHWVRQAPGQGLEWMGWINTETGEPTYADDFKGRVTMTRDTSTSTVYMELSSLRSEDTAVYYCAPSLYYGYSWFTYWGQGTLVTVSGGGGSGGGGSGGGGSGGGGSEVKLQESGPGLVAPSQSLSVTCTVSGVSLPDYGVSWIRQPPRKGLEWLGVIWGSETTYYNSALKSRLTIIKDNSKSQVFLKMNSLQTDDTAIYYCAKHYYYGGSYAMDYWGQGTSVTVSSGSTSGSGKPGSGEGSTKGDIQMTQTTSSLSASLGDRVTISCRASQDISKYLNWYQQKPDGTVKLLIYHTSRLHSGVPSRFSGSGSGTDYSLTISNLEQEDIATYFCQQGNTLPYTFGGGTKLEITESKYGPPCPPCPFWVLVVVGGVLACYSLLVTVAFIIFWVKRGRKKLLYIFKQPFMRPVQTTQEEDGCSCRFPEEEEGGCELRVKFSRSADAPAYKQGQNQLYNELNLGRREEYDVLDKRRGRDPEMGGKPRRKNPQEGLYNELQKDKMAEAYSEIGMKGERRRGKGHDGLYQGLSTATKDTYDALHMQALPPR
notes: Tandem bispecific chimeric antigen receptor on human T cells; built here from its parts without the signal peptide; also called TanCAR 10 CAR-T
B5: TanCAR 08 (other)
chain: DIVMTQSPLSLPVTPGEPASISCRSSQSLVHSNGNTFLHWYLQKPGQSPQLLIYKVSNRFSGVPDRFSGSGSGTDFTLKISRVEAEDVGVYYCMQSTHVLTFGGGTKLEIKRAGGGGSGGGGSGGGGSQVQLVQSGAEVKKPGASVKVSCKASGYTFTDYLMHWVRQAPGQGLEWMGWINTETGEPTYADDFKGRVTMTRDTSTSTVYMELSSLRSEDTAVYYCAPSLYYGYSWFTYWGQGTLVTVSGGGGSGGGGSGGGGSGGGGSQVTLRESGPALVKPTQTLTLTCTFSGVSLPDYGVSWIRQPPGKALEWLAVIWGSETTYYNSALKSRLTISKDTSKNQVVLTMTNMDPVDTATYYCAKHYYYGGSYAMDYWGQGTTVTVSSGSTSGSGKPGSGEGSTKGEIVLTQSPATLSLSPGERATLSCRASQDISKYLNWYQQKPGQAPRLLIYHTSRLHSGIPDRFSGSGSGTDFTLTISRLEPEDIAVYYCQQGNTLPYTFGQGTKLEITTTPAPRPPTPAPTIASQPLSLRPEACRPAAGGAVHTRGLDFACDIYIWAPLAGTCGVLLLSLVITLYCKRGRKKLLYIFKQPFMRPVQTTQEEDGCSCRFPEEEEGGCELRVKFSRSADAPAYQQGQNQLYNELNLGRREEYDVLDKRRGRDPEMGGKPRRKNPQEGLYNELQKDKMAEAYSEIGMKGERRRGKGHDGLYQGLSTATKDTYDALHMQALPPR
notes: Tandem bispecific chimeric antigen receptor on human T cells; built here from its parts without the signal peptide; also called TanCAR 08 CAR-T

What was measured:
human BCMA (antigen) = molecular target: T1, human BCMA (antigen); test: flow cytometry of lentivirus-transduced T cells labelled with antigen, 48 h after transduction; percent positive cells
Description: (§1) The nucleic acid sequence encoding the CAR was expressed under the drive of a promoter, therefore the lentivirus-transfected T cells could be labeled with an antigen or anti-CD19 antibody and measured by flow cytometry, to reflect the expression level of the CAR on the surface of the T cells.

human CD19 (antigen) = molecular target: T2, human CD19 (antigen); test: flow cytometry of lentivirus-transduced T cells labelled with antigen or anti-CD19 antibody, 48 h after transduction; percent positive cells
Description: as §1

[1] = molecular target: T3, BCMA expressed on target cells …; test: cell-based or functional assay
[2] = molecular target: T4, CD19 expressed on Nalm6 cells; test: cell-based or functional assay

Binder	Positive rate of binding to BCMA (human BCMA (antigen)) [%]	Positive rate of binding to CD19 (human CD19 (antigen)) [%]	lysis rate of CHO-K1-BCMA-luc cells by CAR-T cells, ratio 0.25:1 [1] [%]	lysis rate of CHO-K1-BCMA-luc cells by CAR-T cells, ratio 0.5:1 [1] [%]	lysis rate of CHO-K1-BCMA-luc cells by CAR-T cells, ratio 1:1 [1] [%]	lysis rate of CHO-K1-BCMA-luc cells by CAR-T cells, ratio 2:1 [1] [%]	lysis rate of Nalm6-luc cells by CAR-T cells, ratio 0.25:1 [2] [%]	lysis rate of Nalm6-luc cells by CAR-T cells, ratio 0.5:1 [2] [%]	lysis rate of Nalm6-luc cells by CAR-T cells, ratio 1:1 [2] [%]	lysis rate of Nalm6-luc cells by CAR-T cells, ratio 2:1 [2] [%]
B1	14.1	12.7	24	35.9	60.7	59	26.1	49.8	70.1	82.4
B2	13.3	16.4	31.9	48.3	78.4	92.9	68.3	62.9	88.9	95.5
B3	14.2	11.8	26.6	39.2	58.2	79.8	25.8	42.4	67.7	91.2
B4	39.8	34.8	17.1	36	57.9		59.6	77.4	91.5	
B5	28.5	24.4	12.3	38.4	65.9		65.9	83.8	92.2	

Source: patent US20230203178A1 (SICHUAN KELUN BIOTECH BIOPHARMACEUTICAL, published 2023)
